The record followed here is paper PMC5651801.

The target of the test is 4-HIL dehydrogenase (HILDH) from Bacillus thuringiensis 2e2, wild type (Bacillus thuringiensis 2e2). In words: crystal structure; HILDH with 10 mM NADH, sitting-drop vapor diffusion at 20 °C, 30% PEG 400, 0.1 M acetate pH 4.5, 0.2 M calcium acetate; 2.20 Å.

In the case of “4-HIL dehydrogenase (HILDH) from Bacillus thuringiensis 2e2, wild type (enzyme)”, the stoichiometry N amounted to 4.
